From publication PMC10786891, “Massively parallel profiling of RNA-targeting CRISPR-Cas13d”

T1: EsCas13d, nuclease-dead (Eubacterium siraeum, UniProt B0MS50, R295A;H300A;R849A;H854A)
T1 sequence: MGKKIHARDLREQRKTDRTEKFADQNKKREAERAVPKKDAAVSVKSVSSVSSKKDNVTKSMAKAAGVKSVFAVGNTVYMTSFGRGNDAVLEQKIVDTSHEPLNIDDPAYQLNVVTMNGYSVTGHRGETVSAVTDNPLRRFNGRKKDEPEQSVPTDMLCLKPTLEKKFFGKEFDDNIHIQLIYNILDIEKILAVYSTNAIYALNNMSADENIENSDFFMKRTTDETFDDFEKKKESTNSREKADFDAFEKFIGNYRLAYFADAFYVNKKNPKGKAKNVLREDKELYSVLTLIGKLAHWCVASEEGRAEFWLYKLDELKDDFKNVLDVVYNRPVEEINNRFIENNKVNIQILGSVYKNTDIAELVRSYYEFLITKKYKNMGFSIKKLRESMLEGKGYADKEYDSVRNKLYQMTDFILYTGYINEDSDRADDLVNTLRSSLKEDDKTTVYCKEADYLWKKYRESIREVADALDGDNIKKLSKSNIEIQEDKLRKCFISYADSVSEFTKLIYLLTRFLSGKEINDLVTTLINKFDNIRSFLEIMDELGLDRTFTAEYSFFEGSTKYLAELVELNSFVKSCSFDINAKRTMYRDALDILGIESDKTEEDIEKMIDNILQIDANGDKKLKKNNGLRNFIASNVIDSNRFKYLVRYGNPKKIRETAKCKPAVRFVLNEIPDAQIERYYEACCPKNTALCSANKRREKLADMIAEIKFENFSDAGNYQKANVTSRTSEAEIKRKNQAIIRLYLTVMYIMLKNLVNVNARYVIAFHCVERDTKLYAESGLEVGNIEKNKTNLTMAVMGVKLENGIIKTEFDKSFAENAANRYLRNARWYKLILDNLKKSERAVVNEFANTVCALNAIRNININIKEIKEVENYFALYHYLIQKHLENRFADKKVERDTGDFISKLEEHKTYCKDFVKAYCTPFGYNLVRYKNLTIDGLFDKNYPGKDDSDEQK

B1: target 1 MT 5'PFS GAC 3'PFS UUU (mixed)
RNA 1: CACCCGUGCAAAAAUGCAGGGGUCUAAAACUGAGCGGAUAACCUCUCUAUGG
RNA 2: GGGAAUGGAUCCACAUCUACGAAUUCGACCCAUAGAGAGGUUAUCCGCUCAUUUAGAUCGGAAGAGCACACGU
B2: target 1 MT 5'PFS GCU 3'PFS UUA (mixed)
RNA 1: CACCCGUGCAAAAAUGCAGGGGUCUAAAACUGAGCGGAUAACCUCUCUAUGG
RNA 2: GGGAAUGGAUCCACAUCUACGAAUUCGCUCCAUAGAGAGGUUAUCCGCUCAUUAAGAUCGGAAGAGCACACGU
B3: target 1 MT 5'PFS GCA 3'PFS UAG (mixed)
RNA 1: CACCCGUGCAAAAAUGCAGGGGUCUAAAACUGAGCGGAUAACCUCUCUAUGG
RNA 2: GGGAAUGGAUCCACAUCUACGAAUUCGCACCAUAGAGAGGUUAUCCGCUCAUAGAGAUCGGAAGAGCACACGU
B4: target 1 MT 5'PFS GUA 3'PFS GGG (mixed)
RNA 1: CACCCGUGCAAAAAUGCAGGGGUCUAAAACUGAGCGGAUAACCUCUCUAUGG
RNA 2: GGGAAUGGAUCCACAUCUACGAAUUCGUACCAUAGAGAGGUUAUCCGCUCAGGGAGAUCGGAAGAGCACACGU
B5: target 1 MT 5'PFS GAC 3'PFS UUA (mixed)
RNA 1: CACCCGUGCAAAAAUGCAGGGGUCUAAAACUGAGCGGAUAACCUCUCUAUGG
RNA 2: GGGAAUGGAUCCACAUCUACGAAUUCGACCCAUAGAGAGGUUAUCCGCUCAUUAAGAUCGGAAGAGCACACGU
B6: target 1 MT 5'PFS GAC 3'PFS UUG (mixed)
RNA 1: CACCCGUGCAAAAAUGCAGGGGUCUAAAACUGAGCGGAUAACCUCUCUAUGG
RNA 2: GGGAAUGGAUCCACAUCUACGAAUUCGACCCAUAGAGAGGUUAUCCGCUCAUUGAGAUCGGAAGAGCACACGU
B7: target 1 MT 5'PFS GUA 3'PFS GGA (mixed)
RNA 1: CACCCGUGCAAAAAUGCAGGGGUCUAAAACUGAGCGGAUAACCUCUCUAUGG
RNA 2: GGGAAUGGAUCCACAUCUACGAAUUCGUACCAUAGAGAGGUUAUCCGCUCAGGAAGAUCGGAAGAGCACACGU
B8: target 1 MT 5'PFS GUA 3'PFS UGU (mixed)
RNA 1: CACCCGUGCAAAAAUGCAGGGGUCUAAAACUGAGCGGAUAACCUCUCUAUGG
RNA 2: GGGAAUGGAUCCACAUCUACGAAUUCGUACCAUAGAGAGGUUAUCCGCUCAUGUAGAUCGGAAGAGCACACGU
B9: target 1 insG 3' of 10,insA 3' of 7 (mixed)
RNA 1: CACCCGUGCAAAAAUGCAGGGGUCUAAAACUGAGCGGAUAACCUCUCUAUGG
RNA 2: GGGAAUGGAUCCACAUCUACGAAUUCGUACCAUAGAGAGGUUGAUCACGCUCACCGAGAUCGGAAGAGCACACGU
B10: target 1 MT 5'PFS GGA 3'PFS UCU (mixed)
RNA 1: CACCCGUGCAAAAAUGCAGGGGUCUAAAACUGAGCGGAUAACCUCUCUAUGG
RNA 2: GGGAAUGGAUCCACAUCUACGAAUUCGGACCAUAGAGAGGUUAUCCGCUCAUCUAGAUCGGAAGAGCACACGU
B11: target 1 insU 3' of 13,insA 3' of 13 (mixed)
RNA 1: CACCCGUGCAAAAAUGCAGGGGUCUAAAACUGAGCGGAUAACCUCUCUAUGG
RNA 2: GGGAAUGGAUCCACAUCUACGAAUUCGUACCAUAGAGAGUAGUUAUCCGCUCACCGAGAUCGGAAGAGCACACGU
B12: target 1 MT 5'PFS GCU 3'PFS UUG (mixed)
RNA 1: CACCCGUGCAAAAAUGCAGGGGUCUAAAACUGAGCGGAUAACCUCUCUAUGG
RNA 2: GGGAAUGGAUCCACAUCUACGAAUUCGCUCCAUAGAGAGGUUAUCCGCUCAUUGAGAUCGGAAGAGCACACGU
B13: target 1 MT 5'PFS GGA 3'PFS UCG (mixed)
RNA 1: CACCCGUGCAAAAAUGCAGGGGUCUAAAACUGAGCGGAUAACCUCUCUAUGG
RNA 2: GGGAAUGGAUCCACAUCUACGAAUUCGGACCAUAGAGAGGUUAUCCGCUCAUCGAGAUCGGAAGAGCACACGU
B14: target 1 MT 5'PFS GAG 3'PFS AGA (mixed)
RNA 1: CACCCGUGCAAAAAUGCAGGGGUCUAAAACUGAGCGGAUAACCUCUCUAUGG
RNA 2: GGGAAUGGAUCCACAUCUACGAAUUCGAGCCAUAGAGAGGUUAUCCGCUCAAGAAGAUCGGAAGAGCACACGU
B15: target 1 MT 5'PFS CAA 3'PFS UCG (mixed)
RNA 1: CACCCGUGCAAAAAUGCAGGGGUCUAAAACUGAGCGGAUAACCUCUCUAUGG
RNA 2: GGGAAUGGAUCCACAUCUACGAAUUCCAACCAUAGAGAGGUUAUCCGCUCAUCGAGAUCGGAAGAGCACACGU
B16: target 1 MT 5'PFS GCA 3'PFS UAC (mixed)
RNA 1: CACCCGUGCAAAAAUGCAGGGGUCUAAAACUGAGCGGAUAACCUCUCUAUGG
RNA 2: GGGAAUGGAUCCACAUCUACGAAUUCGCACCAUAGAGAGGUUAUCCGCUCAUACAGAUCGGAAGAGCACACGU
B17: target 1 MT 5'PFS GAC 3'PFS UUC (mixed)
RNA 1: CACCCGUGCAAAAAUGCAGGGGUCUAAAACUGAGCGGAUAACCUCUCUAUGG
RNA 2: GGGAAUGGAUCCACAUCUACGAAUUCGACCCAUAGAGAGGUUAUCCGCUCAUUCAGAUCGGAAGAGCACACGU
B18: target 1 MT 5'PFS GGA 3'PFS UCC (mixed)
RNA 1: CACCCGUGCAAAAAUGCAGGGGUCUAAAACUGAGCGGAUAACCUCUCUAUGG
RNA 2: GGGAAUGGAUCCACAUCUACGAAUUCGGACCAUAGAGAGGUUAUCCGCUCAUCCAGAUCGGAAGAGCACACGU
B19: target 1 MT 5'PFS AUG 3'PFS CCC (mixed)
RNA 1: CACCCGUGCAAAAAUGCAGGGGUCUAAAACUGAGCGGAUAACCUCUCUAUGG
RNA 2: GGGAAUGGAUCCACAUCUACGAAUUCAUGCCAUAGAGAGGUUAUCCGCUCACCCAGAUCGGAAGAGCACACGU
B20: target 1 MT 5'PFS GCA 3'PFS UAU (mixed)
RNA 1: CACCCGUGCAAAAAUGCAGGGGUCUAAAACUGAGCGGAUAACCUCUCUAUGG
RNA 2: GGGAAUGGAUCCACAUCUACGAAUUCGCACCAUAGAGAGGUUAUCCGCUCAUAUAGAUCGGAAGAGCACACGU
B21: target 1 MT 5'PFS GUA 3'PFS GGC (mixed)
RNA 1: CACCCGUGCAAAAAUGCAGGGGUCUAAAACUGAGCGGAUAACCUCUCUAUGG
RNA 2: GGGAAUGGAUCCACAUCUACGAAUUCGUACCAUAGAGAGGUUAUCCGCUCAGGCAGAUCGGAAGAGCACACGU
B22: target 1 MT 5'PFS GCU 3'PFS UUC (mixed)
RNA 1: CACCCGUGCAAAAAUGCAGGGGUCUAAAACUGAGCGGAUAACCUCUCUAUGG
RNA 2: GGGAAUGGAUCCACAUCUACGAAUUCGCUCCAUAGAGAGGUUAUCCGCUCAUUCAGAUCGGAAGAGCACACGU
B23: target 1 MT 5'PFS GGA 3'PFS UCA (mixed)
RNA 1: CACCCGUGCAAAAAUGCAGGGGUCUAAAACUGAGCGGAUAACCUCUCUAUGG
RNA 2: GGGAAUGGAUCCACAUCUACGAAUUCGGACCAUAGAGAGGUUAUCCGCUCAUCAAGAUCGGAAGAGCACACGU
B24: target 1 MT 5'PFS GCU 3'PFS UUU (mixed)
RNA 1: CACCCGUGCAAAAAUGCAGGGGUCUAAAACUGAGCGGAUAACCUCUCUAUGG
RNA 2: GGGAAUGGAUCCACAUCUACGAAUUCGCUCCAUAGAGAGGUUAUCCGCUCAUUUAGAUCGGAAGAGCACACGU
B25: target 1 G5C,A16G (mixed)
RNA 1: CACCCGUGCAAAAAUGCAGGGGUCUAAAACUGAGCGGAUAACCUCUCUAUGG
RNA 2: GGGAAUGGAUCCACAUCUACGAAUUCGUACCAUAGGGAGGUUAUCCCCUCACCGAGAUCGGAAGAGCACACGU
B26: target 1 MT 5'PFS GCA 3'PFS UAA (mixed)
RNA 1: CACCCGUGCAAAAAUGCAGGGGUCUAAAACUGAGCGGAUAACCUCUCUAUGG
RNA 2: GGGAAUGGAUCCACAUCUACGAAUUCGCACCAUAGAGAGGUUAUCCGCUCAUAAAGAUCGGAAGAGCACACGU
B27: target 1 MT 5'PFS GUA 3'PFS GGU (mixed)
RNA 1: CACCCGUGCAAAAAUGCAGGGGUCUAAAACUGAGCGGAUAACCUCUCUAUGG
RNA 2: GGGAAUGGAUCCACAUCUACGAAUUCGUACCAUAGAGAGGUUAUCCGCUCAGGUAGAUCGGAAGAGCACACGU
B28: target 1 MT 5'PFS GAG 3'PFS AGU (mixed)
RNA 1: CACCCGUGCAAAAAUGCAGGGGUCUAAAACUGAGCGGAUAACCUCUCUAUGG
RNA 2: GGGAAUGGAUCCACAUCUACGAAUUCGAGCCAUAGAGAGGUUAUCCGCUCAAGUAGAUCGGAAGAGCACACGU

Target: T1, EsCas13d, nuclease-dead
Assay: crRNA (strand 1, pre-loaded); Mg2+; 40 mM Tris-HCl pH 7.5, 150 mM NaCl, 6 mM MgCl2, 1 mM DTT, 0.1% Tween-20, 0.2 mg/ml BSA; 25 C; 10 min per concentration, then washed
Settings: tags: His6-TwinStrep-SUMO cleaved; N-terminal SNAP kept (SNAP-Surface 488); label: 3' end held by stalled T7 RNA polymerase

Binder | Kd
B1 | 11 ± 4.5 nM
B2 | 22 ± 5 nM
B3 | 19.4 ± 4.95 nM
B4 | 30.6 ± 3.7 nM
B5 | 13.2 ± 4.3 nM
B6 | 14.5 ± 4 nM
B7 | 15.8 ± 2.45 nM
B8 | 19.1 ± 0.95 nM
B9 | 15.3 ± 0.6 nM
B10 | 13.5 ± 2.5 nM
B11 | 4.35 ± 0.17 nM
B12 | 61 ± 23.5 nM
B13 | 10.8 ± 1.2 nM
B14 | 37 ± 13 nM
B15 | 12.2 ± 3.6 nM
B16 | 14 ± 2.55 nM
B17 | 14.1 ± 4.25 nM
B18 | 23 ± 7 nM
B19 | ~40.5 nM
B20 | 10.8 ± 1.45 nM
B21 | 7.25 ± 0.95 nM
B22 | 36.5 ± 9 nM
B23 | 17.9 ± 5.7 nM
B24 | 24.1 ± 3.8 nM
B25 | 65 ± 11 nM
B26 | 19 ± 6.5 nM
B27 | 20.7 ± 2 nM
B28 | 47.5 ± 16.5 nM
